Source: IntAct's records for PubMed 20173330

Target: jip4_mouse Spag9 (UniProt Q58A65)
UniProt Q58A65, sequence (Q58A65 whole entry): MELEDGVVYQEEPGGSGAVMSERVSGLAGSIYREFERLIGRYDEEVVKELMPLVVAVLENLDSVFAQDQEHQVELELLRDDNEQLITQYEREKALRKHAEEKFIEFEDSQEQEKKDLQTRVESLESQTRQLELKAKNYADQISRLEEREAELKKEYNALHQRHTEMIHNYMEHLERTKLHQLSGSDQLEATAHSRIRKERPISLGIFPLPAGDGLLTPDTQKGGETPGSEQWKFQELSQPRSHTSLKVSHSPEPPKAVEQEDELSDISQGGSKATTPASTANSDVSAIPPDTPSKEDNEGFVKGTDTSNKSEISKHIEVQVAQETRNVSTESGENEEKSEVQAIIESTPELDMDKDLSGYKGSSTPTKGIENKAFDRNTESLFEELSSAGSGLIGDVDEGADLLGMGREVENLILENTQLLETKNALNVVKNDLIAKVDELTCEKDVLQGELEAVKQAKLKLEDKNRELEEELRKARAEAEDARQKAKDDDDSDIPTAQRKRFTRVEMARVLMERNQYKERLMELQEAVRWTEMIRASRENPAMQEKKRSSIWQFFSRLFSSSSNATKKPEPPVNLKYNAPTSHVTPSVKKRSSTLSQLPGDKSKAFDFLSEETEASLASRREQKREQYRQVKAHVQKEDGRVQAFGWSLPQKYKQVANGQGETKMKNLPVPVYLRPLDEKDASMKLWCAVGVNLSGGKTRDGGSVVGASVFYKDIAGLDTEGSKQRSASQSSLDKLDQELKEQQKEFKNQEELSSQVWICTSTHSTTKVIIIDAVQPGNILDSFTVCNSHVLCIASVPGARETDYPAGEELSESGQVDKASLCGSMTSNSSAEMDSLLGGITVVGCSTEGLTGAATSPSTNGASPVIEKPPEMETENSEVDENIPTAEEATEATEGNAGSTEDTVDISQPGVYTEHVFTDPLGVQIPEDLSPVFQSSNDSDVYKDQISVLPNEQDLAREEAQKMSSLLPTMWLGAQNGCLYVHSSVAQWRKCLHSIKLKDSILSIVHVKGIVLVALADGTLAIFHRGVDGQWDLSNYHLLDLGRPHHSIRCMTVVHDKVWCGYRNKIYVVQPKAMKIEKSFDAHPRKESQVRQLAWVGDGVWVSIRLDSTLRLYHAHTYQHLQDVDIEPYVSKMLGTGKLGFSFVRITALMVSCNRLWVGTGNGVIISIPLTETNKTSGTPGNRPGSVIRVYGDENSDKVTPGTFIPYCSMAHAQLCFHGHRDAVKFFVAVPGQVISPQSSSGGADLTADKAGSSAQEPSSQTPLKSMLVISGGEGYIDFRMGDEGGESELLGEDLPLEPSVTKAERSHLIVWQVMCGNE

effect of a mutation on the interaction	Substance
increasing interaction	Leucine-rich repeat serine/threonine-protein kinase 2 (Homo sapiens), Q5S007 I2020T
increasing interaction	Leucine-rich repeat serine/threonine-protein kinase 2 (Homo sapiens), Q5S007 R1441C
decreasing interaction	Leucine-rich repeat serine/threonine-protein kinase 2 (Homo sapiens), Q5S007 Y1699C
increasing interaction	Leucine-rich repeat serine/threonine-protein kinase 2 (Homo sapiens), Q5S007 G2019S
